Format in all cases: binding
Conditions in all cases: response relative to ADIFAB2

Assay [1] can be described thus: Probe fluorescence ratio response to arachidonic acid relative to ADIFAB2. In a few lines:
(§1)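 Each fatty acid's response was expressed relative to ADIFAB2, the rI-FABP-L72A probe, as ΔR/ΔRreference. ΔR is the change in the background-corrected two-wavelength intensity ratio R=Fλ1/Fλ2 from its analyte-free baseline R0. Emission was read near about 420-480 nm for unbound and about 495-580 nm for FFA-bound probe.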

The nature of assay [2]: Probe fluorescence ratio response to linoleic acid relative to ADIFAB2. In a few lines: as §1
A short description of assay [3]: Probe fluorescence ratio response to oleic acid relative to ADIFAB2. In a few lines:
as §1

Assay [4] is described as follows: Probe fluorescence ratio response to linolenic acid relative to ADIFAB2. Summed up:
as §1

The nature of assay [5]: Probe fluorescence ratio response to palmitic acid relative to ADIFAB2. In a few lines:
as §1

“And” between values parts separate entries of the source, which are not always exact repeats. Equal entries are not always repeated.

B1: 38V2, 72A (protein, listed as Rattus norvegicus)
chain: AFDGTWKVDRNENYEKFMEKMGINVVKRKLGAHDNLKVTITQEGNKFTVKESSNFRNIDVVFELGVDFAYSAADGTELTGTWTMEGNKLVGKFKRVDNGKELIAVREISGNELIQTYTYEGVEAKRIFKKE
modifications: PEPTIDE (1)...(131) wild-type rat intestinal fatty acid binding protein
For B1, the “DR/DR AA” value in assay [1] (Arachidonic acid) is recorded as 1.65. For the same molecule, in assay [2], the “DR/DR LA” value is reported as 1.70. For the same molecule, the “DR/DR OA” value in assay [3] turned out to be 1.75. Moreover, the “DR/DR LNA” value in assay [4] is given as 1.67. In addition, the “DR/DR PA” value in assay [5] was 1.50.

B2: 38Y1, 72A (protein, listed as Rattus norvegicus)
chain: AFDGTWKVDRNENYEKFMEKMGINVVKRKLGAHDNLKYTITQEGNKFTVKESSNFRNIDVVFELGVDFAYSAADGTELTGTWTMEGNKLVGKFKRVDNGKELIAVREISGNELIQTYTYEGVEAKRIFKKE
modifications: PEPTIDE (1)...(131) wild-type rat intestinal fatty acid binding protein
On to B2, for which, in assay [1] (Arachidonic acid), the “DR/DR AA” value was 2.08. The “DR/DR LA” value in assay [2] was determined as 1.82. In addition, in assay [3], the “DR/DR OA” value was found to be 1.72. In assay [4], the “DR/DR LNA” value was found to be 1.88. Besides, in assay [5], the “DR/DR PA” value came out at 1.52.

B3: 102Q, 72A (protein, listed as Rattus norvegicus)
chain: AFDGTWKVDRNENYEKFMEKMGINVVKRKLGAHDNLKLTITQEGNKFTVKESSNFRNIDVVFELGVDFAYSAADGTELTGTWTMEGNKLVGKFKRVDNGKEQIAVREISGNELIQTYTYEGVEAKRIFKKE
modifications: PEPTIDE (1)...(131) wild-type rat intestinal fatty acid binding protein
B3: in assay [1] (arachidonic acid), the “DR/DR AA” value is on record as 0.62. In addition, the “DR/DR LA” value in assay [2] stood at 0.66. Further, the “DR/DR OA” value in assay [3] stood at 0.60. In assay [4], the “DR/DR LNA” value stood at 0.71. Moreover, in assay [5], the “DR/DR PA” value turned out to be 0.30.

B4: 47L2, L72A (protein, listed as Rattus norvegicus)
chain: AFDGTWKVDRNENYEKFMEKMGINVVKRKLGAHDNLKLTITQEGNKLTVKESSNFRNIDVVFELGVDFAYSAADGTELTGTWTMEGNKLVGKFKRVDNGKELIAVREISGNELIQTYTYEGVEAKRIFKKE
modifications: PEPTIDE (1)...(131) wild-type rat intestinal fatty acid binding protein
For the molecule B4, in assay [1] (Arachidonic acid), the “DR/DR AA” value came to 1.15. Further, the “DR/DR LA” value in assay [2] stood at 1.21. For the same molecule, the “DR/DR OA” value in assay [3] is on record as 1.20. The “DR/DR LNA” value in assay [4] was 1.20. Further, in assay [5], the “DR/DR PA” value is 0.90.

B5: 47A1, L72A (protein, listed as Rattus norvegicus)
chain: AFDGTWKVDRNENYEKFMEKMGINVVKRKLGAHDNLKLTITQEGNKATVKESSNFRNIDVVFELGVDFAYSAADGTELTGTWTMEGNKLVGKFKRVDNGKELIAVREISGNELIQTYTYEGVEAKRIFKKE
modifications: PEPTIDE (1)...(131) wild-type rat intestinal fatty acid binding protein
Take B5: in assay [1] (Arachidonic acid), the “DR/DR AA” value stood at 0.54. Moreover, in assay [2], the “DR/DR LA” value is given as 0.58. For the same molecule, the “DR/DR OA” value in assay [3] turned out to be 0.59. In addition, the “DR/DR LNA” value in assay [4] was 0.57. In assay [5], the “DR/DR PA” value worked out at 0.30.

B6: 47M, 72A (protein, listed as Rattus norvegicus)
chain: AFDGTWKVDRNENYEKFMEKMGINVVKRKLGAHDNLKLTITQEGNKMTVKESSNFRNIDVVFELGVDFAYSAADGTELTGTWTMEGNKLVGKFKRVDNGKELIAVREISGNELIQTYTYEGVEAKRIFKKE
modifications: PEPTIDE (1)...(131) wild-type rat intestinal fatty acid binding protein
For B6, the “DR/DR AA” value is on record as 1.14 in assay [1] (Arachidonic acid) and 1.138 in assay [1] (arachidonic acid). Further, the “DR/DR LA” value in assay [2] is 1.18 and 1.183. Moreover, the “DR/DR OA” value in assay [3] was 1.17 and 1.168. Further, the “DR/DR LNA” value in assay [4] was 1.13 and 1.135. Besides, the “DR/DR PA” value in assay [5] is 0.97 and 0.966.

B7: 38W1, 72A (protein, listed as Rattus norvegicus)
chain: AFDGTWKVDRNENYEKFMEKMGINVVKRKLGAHDNLKWTITQEGNKFTVKESSNFRNIDVVFELGVDFAYSAADGTELTGTWTMEGNKLVGKFKRVDNGKELIAVREISGNELIQTYTYEGVEAKRIFKKE
modifications: PEPTIDE (1)...(131) wild-type rat intestinal fatty acid binding protein
For B7, in assay [1] (Arachidonic acid), the “DR/DR AA” value came to 1.35. In addition, the “DR/DR LA” value in assay [2] turned out to be 2.41. Besides, the “DR/DR OA” value in assay [3] came to 1.58. For the same molecule, the “DR/DR LNA” value in assay [4] is given as 1.34. Further, the “DR/DR PA” value in assay [5] is reported as 1.55.

B8: 40Y3, L72A (protein, listed as Rattus norvegicus)
chain: AFDGTWKVDRNENYEKFMEKMGINVVKRKLGAHDNLKLTYTQEGNKFTVKESSNFRNIDVVFELGVDFAYSAADGTELTGTWTMEGNKLVGKFKRVDNGKELIAVREISGNELIQTYTYEGVEAKRIFKKE
modifications: PEPTIDE (1)...(131) wild-type rat intestinal fatty acid binding protein
Take B8: in assay [1] (Arachidonic acid), the “DR/DR AA” value was found to be 0.89. Also, in assay [2], the “DR/DR LA” value amounted to 0.50. In addition, in assay [3], the “DR/DR OA” value was found to be 0.48. Moreover, the “DR/DR LNA” value in assay [4] is on record as 0.49. Besides, the “DR/DR PA” value in assay [5] is recorded as 0.29.

B9: 47E3, L72A (protein, listed as Rattus norvegicus)
chain: AFDGTWKVDRNENYEKFMEKMGINVVKRKLGAHDNLKLTITQEGNKETVKESSNFRNIDVVFELGVDFAYSAADGTELTGTWTMEGNKLVGKFKRVDNGKELIAVREISGNELIQTYTYEGVEAKRIFKKE
modifications: PEPTIDE (1)...(131) wild-type rat intestinal fatty acid binding protein
For B9, the “DR/DR AA” value in assay [1] (Arachidonic acid) is 1.25. Moreover, the “DR/DR LA” value in assay [2] stood at 1.23. The “DR/DR OA” value in assay [3] turned out to be 1.25. Further, the “DR/DR LNA” value in assay [4] is 1.26. The “DR/DR PA” value in assay [5] is 1.06.

B10: 102R, 72A (protein, listed as Rattus norvegicus)
chain: AFDGTWKVDRNENYEKFMEKMGINVVKRKLGAHDNLKLTITQEGNKFTVKESSNFRNIDVVFELGVDFAYSAADGTELTGTWTMEGNKLVGKFKRVDNGKERIAVREISGNELIQTYTYEGVEAKRIFKKE
modifications: PEPTIDE (1)...(131) wild-type rat intestinal fatty acid binding protein
With B10, the “DR/DR AA” value in assay [1] (arachidonic acid) worked out at 0.51. The “DR/DR LA” value in assay [2] came out at 0.60. In assay [3], the “DR/DR OA” value was 0.56. Besides, in assay [4], the “DR/DR LNA” value amounted to 0.57. In assay [5], the “DR/DR PA” value stood at 0.25.

B11: 40V1, L72A (protein, listed as Rattus norvegicus)
chain: AFDGTWKVDRNENYEKFMEKMGINVVKRKLGAHDNLKLTVTQEGNKFTVKESSNFRNIDVVFELGVDFAYSAADGTELTGTWTMEGNKLVGKFKRVDNGKELIAVREISGNELIQTYTYEGVEAKRIFKKE
modifications: PEPTIDE (1)...(131) wild-type rat intestinal fatty acid binding protein
As for B11, the “DR/DR AA” value in assay [1] (Arachidonic acid) came out at 1.20. Also, the “DR/DR LA” value in assay [2] was determined as 1.24. Besides, the “DR/DR OA” value in assay [3] is listed as 1.21. In assay [4], the “DR/DR LNA” value is 1.28. In assay [5], the “DR/DR PA” value was found to be 0.91.

B12: 47C3, L72A (protein, listed as Rattus norvegicus)
chain: AFDGTWKVDRNENYEKFMEKMGINVVKRKLGAHDNLKLTITQEGNKCTVKESSNFRNIDVVFELGVDFAYSAADGTELTGTWTMEGNKLVGKFKRVDNGKELIAVREISGNELIQTYTYEGVEAKRIFKKE
modifications: PEPTIDE (1)...(131) wild-type rat intestinal fatty acid binding protein
As to B12, the “DR/DR AA” value in assay [1] (Arachidonic acid) is on record as 0.32. Further, the “DR/DR LA” value in assay [2] was 0.37. Besides, in assay [3], the “DR/DR OA” value is on record as 0.35. The “DR/DR LNA” value in assay [4] was 0.35. For the same molecule, the “DR/DR PA” value in assay [5] is on record as 0.23.

B13: 47I2, L72A (protein, listed as Rattus norvegicus)
chain: AFDGTWKVDRNENYEKFMEKMGINVVKRKLGAHDNLKLTITQEGNKITVKESSNFRNIDVVFELGVDFAYSAADGTELTGTWTMEGNKLVGKFKRVDNGKELIAVREISGNELIQTYTYEGVEAKRIFKKE
modifications: PEPTIDE (1)...(131) wild-type rat intestinal fatty acid binding protein
With B13, the “DR/DR AA” value in assay [1] (Arachidonic acid) is 1.19. For the same molecule, the “DR/DR LA” value in assay [2] was determined as 1.22. Besides, in assay [3], the “DR/DR OA” value was found to be 1.15. For the same molecule, the “DR/DR LNA” value in assay [4] turned out to be 1.19. Further, in assay [5], the “DR/DR PA” value stood at 0.92.

B14: 47H1, L72A (protein, listed as Rattus norvegicus)
chain: AFDGTWKVDRNENYEKFMEKMGINVVKRKLGAHDNLKLTITQEGNKHTVKESSNFRNIDVVFELGVDFAYSAADGTELTGTWTMEGNKLVGKFKRVDNGKELIAVREISGNELIQTYTYEGVEAKRIFKKE
modifications: PEPTIDE (1)...(131) wild-type rat intestinal fatty acid binding protein
As to B14, the “DR/DR AA” value in assay [1] (Arachidonic acid) was found to be 0.63. Also, in assay [2], the “DR/DR LA” value was 0.74. Also, in assay [3], the “DR/DR OA” value is 0.67. In assay [4], the “DR/DR LNA” value is listed as 0.70. Further, the “DR/DR PA” value in assay [5] is listed as 0.43.

B15: 40F2, L72A (protein, listed as Rattus norvegicus)
chain: AFDGTWKVDRNENYEKFMEKMGINVVKRKLGAHDNLKLTFTQEGNKFTVKESSNFRNIDVVFELGVDFAYSAADGTELTGTWTMEGNKLVGKFKRVDNGKELIAVREISGNELIQTYTYEGVEAKRIFKKE
modifications: PEPTIDE (1)...(131) wild-type rat intestinal fatty acid binding protein
In the case of B15, the “DR/DR AA” value in assay [1] (Arachidonic acid) was determined as 0.89. Further, the “DR/DR LA” value in assay [2] stood at 0.90. In assay [3], the “DR/DR OA” value is 0.90. Besides, the “DR/DR LNA” value in assay [4] was 0.99. In assay [5], the “DR/DR PA” value was 0.80.
